Assay: yeast display, Sf9 membrane polyspecificity reagent, FACS + sequencing; frameworks hold sequencing errors
In short: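 After 36–48 hours of galactose induction, yeast (Saccharomyces cerevisiae BJ5465) displaying a synthetic nanobody library were stained at 4 °C for 1 hour with 10% biotinylated, detergent-solubilized Sf9 membrane reagent. Streptavidin microbeads enriched the stained cells before FACS sorting into low and high (top ~1%) gates on anti-HA and streptavidin fluorescence. Each clone's polyreactivity label reflects its gate of origin.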

| Sequence | polyreactivity (PSR sort gate) |
| --- | --- |
| QVQLVESGGGLVQAGGSLRLSCAASGRTFLHNAKGWYRQAHGKERELVAAIDSGGTTHYADSVKGRFTISRDNAKNTVYLQMKSLKPEDTAVYYCAARPTRGNWWYGYWGQGTQVTVSS | low polyreactivity |
| QVQLVESGGGLVQAGGSLRLSCAASGRTFLINAMGWYRQAPGKEWELVAAITQSGGSTYYADSVKGRFTISRDKAKNTVYLQLNSLKPEDTAVYYCAADVPGVYPYDYWGQGTQVTVSS | low polyreactivity |
| QVQLVESGGGLVQAGGSLRLSCAASGRTFLIYAMGWYRQAPGKERELVAAITSGGRTKYADSVKGRFTISRDNAKNTVYLQMNSLKPEDTAVYYCAARTGVYRYSRKFYYWGQGTQVTVSS | high polyreactivity |
| QVQLVESGGGLVQAGGSLRLSCAASGRTFLKNAMGWYRQAPGKERELVAAITSGGSTNYADSVKGRFTISRDNAKNTVYLQMNSLKPEDTAVYYCNAPSYWYYPVLGSFLTFDYWGQGTQVTVSS | low polyreactivity |
| QVQLVESGGGLVQAGGSLRLSCAASGRTFLLYAMGWYRQAPGKERELVAAITSGGGRTYYADSVKGRFTISRDNAKNTVYLQMNSLKPEDTAVYYCAATRPATYAAYDYWGQGTQVTVSS | high polyreactivity |
| QVQLVESGGGLVQAGGSLRLSCAASGRTFLQYAMGWYRQAPGKERELVAANTTSGGDTYYADSVKGRFTISRDNAKNTVYLQMNSMKPDDTAVYYCNAAFRVYIPHVPYFVDFDYWGQGTQVTLSS | low polyreactivity |
| QVQLVESGGGLVQAGGSLRLSCAASGRTFLVYAMGWYRQAPGKERELVAAIRYSGSSTYADSVKGRFTISRDNAKNTVYLQMNSLKPEDTAVYDCNARRASYRSIYDYWGHGTQVTVSS | high polyreactivity |
| QVQLVESGGGLVQAGGSLRLSCAASGRTFLVYAMGWYRQAPGKERELVAAITYSDGSTYYADSVKGRFTISRDNAKNTVYLQMNSLKPEDTAVYFCAADSSTFPSDYYWGKGTQVTVSS | low polyreactivity |
| QVQLVESGGGLVQAGGSLRLSCAASGRTFLWNAMGWSRPAPGKERELVAAITSGGRTTYADSVKGRFTISRDNAKNTVYLQMNSLKPEDTAVYYCAAVSANQDFDYWGQGTQVTVSS | high polyreactivity |
| QVQLVESGGGLVQAGGSLRLSCAASGRTFLWNAMGWYRQAPGKERELVAAIRGGTITYYADSVKGRFTISRDNAKNTVYLQMNSLKPEDTAVYYCAATSARGQYYWYCFNGYPYSEFGYWGQGTQVTVSS | low polyreactivity |
| QVQLVESGGGLVQAGGSLRLSCAASGRTFLWNAMGWYRQAPGKERELVAAISISGGNTNYADSVKGRFTISRDNAKNTVYLQMNSLKPEDTAVYYCNADPRAEPGDWSYEMDYWGQGTQVTVSS | low polyreactivity |
| QVQLVESGGGLVQAGGSLRLSCAASGRTFLWYAKGWYRQAPGKEMELVATITSGDSTIYADSVKGRFTISRDNEKNTVYLQMNSLKPVDTAVYYCAAGYYYYLRDHDYWGQGTQVTVSS | low polyreactivity |
| QVQLVESGGGLVQAGGSLRLSCAASGRTFLYNAMGWYRQAPGKERELVAAIRWSGGTTYYADSVKGRFTISRDNAKNTVYLQMNSLKPEDTAVYYCAARWGPYYGGVRYGYWGQGTQVTVSS | high polyreactivity |
| QVQLVESGGGLVQAGGSLRLSCAASGRTFLYVMGWYRQAPGKERELVAAISRGGSTSYADSVKGRFTISRDNAKNTVYLQMNSLKPEDTAVYYCAATNYWRDGYWGQGTQVTVSS | high polyreactivity |
| QVQLVESGGGLVQAGGSLRLSCAASGRTFMRYAMGWYRQAPGKERELVAAISRGGGRTYYADSVKGRFTISRDNAKNTVYLQMNSLKPEDTAVYYCAADLSPEYDYWGQGTQVTVSS | high polyreactivity |
| QVQLVESGGGLVQAGGSLRLSCAASGRTFNAYAMGWYRQAPGKERELVAAITWSGGSTYYAHSVKGRFTISRDNAKNTVYLQMNSLKPEDTAVYYCAARSFTNIRSVSSPYRYYYWGQGTQVTVSS | high polyreactivity |
